Laboratory results: PMC4873334 (Neuron, 2016)

B1: Pcdh α7 EC1–5 (mouse clustered protocadherin α7, extracellular cadherin domains 1–5) (domain or fragment)
chain: QLHYSVPEEAKHGTFVGRIAQDLGLELTELVPRLFRVASKDRGDLLEVNLQNGILFVNSRIDREELCGRSAECSIHLEVIVDRPLQVFHVEVEVKDINDNPPMFPATQKALFILESRLLDSRFPLEGASDADVGSNALLTYRLSTNEHFSLDVPPNHEQVKPLGLVLRKPLDREEAAEIRLLLTATDGGKPELTGTVQLLITVLDVNDNAPVFDRSLYTVKLPENVPNGTLVIKVNASDLDEGVNGDVMYSFSSDVSSDIKSKFHMDTVSGEITVIGIIDFEESKAYKIPLEARDKGFPQLPGHCTILVEVVDANDNAPQLTVSSLSLPVSEDSQPGRVVTLISVFDRDSGANGQVTCSLTPHIPFKLVSTFKNYYSLVLDSALDRETIANYDVIVTARDGGSPSLWATASVSVEVADVNDNAPLFAQPEYTVFVKENNPPGAHIFTVSAMDADAQENALVSYSLVERRVGERLLSSYVSVHAESGKVFALQPLDHEELELLQFQVSARDAGVPALGSNVTLQVFVLDEND
modifications: N- and O-linked glycans; O-mannose at positions 194 and 196 (EC2), T409 (EC4) and S449 (EC5)
B2: Pcdh β8 EC1–4 (mouse clustered protocadherin β8, extracellular cadherin domains 1–4) (domain or fragment)
chain: EAISYSMPEETESGYLVANLAQDLGLRVGELTTRGARIHHNGNKELLQLDAERGNLLLKEKPDREALCGATEPCVLHFQIILENPVQFFQTDLQFTDINDHFPEFPDTEMLLKIQEIAQPGTVFPLKAAQDPDIGSNAVQNYTVSPNLHFHVVTLSRSDDRKYPELVLDRALDREEQPELTLILTALDGGAPPKSGTTTVRIEVVDINDNAPQFLQSLYAVEVPENSPLNALVVTVSARDLDAGIHGNVAYSLFQGGGGPQPFVIDEITGEIRLKGALDFEATSYYTMEIVATDSGGLSGKCTVAIQVLDVNDNAPKLTISSLTSSIPENAPEAVVAVFSVSDPDSGDNGRMVCSIQNGLPFLLKPTFKNFYTLVTERPLDRESNAEYNITITVSDLGTPRLTTQHTITVQVSDINDN
modifications: N- and O-linked glycans; O-mannose at positions 194 and 196 (α7 numbering) of EC2 and on T199
B3: Pcdh α4 EC1–4 (mouse clustered protocadherin α4, extracellular cadherin domains 1–4) (domain or fragment)
chain: QIHYSIPEEAKHGTFVGRIAQDLGLELTELVPRLFRVASKDRGDLLEVNLQNGILFVNSRIDREELCGRSAECSIHLEVIVDRPLQVFHVEVEVRDINDNPPRFPTTQKNLFIAESRPLDTWFPLEGASDADIGINAVLTYRLSPNDYFSLEKPSNDERVKGLGLVLRKSLDREETPEIILVLTVTDGGKPELTGSVQLLITVLDANDNAPVFDRSLYTVKLPENVPNGTLVVKVNASDLDEGVNGDIMYSFSTDISPNVKYKFHIDPVSGEIIVKGYIDFEECKSYEILIEGIDKGQLPLSGHCKVIVQVEDINDNVPELEFKSLSLPIRENSPVGTVIALISVSDRDTGVNGQVTCSLTSHVPFKLVSTFKNYYSLVLDSALDRETTADYKVVVTARDGGSPSLWATASVSVEVADVND
modifications: N- and O-linked glycans; O-mannose on T409, S411 and S413 (EC4)
B4: Pcdh β6 EC1–4 (mouse clustered protocadherin β6, extracellular cadherin domains 1–4) (domain or fragment)
chain: EAIRYSIPEETESGYLVAHLAKDLGFRVGELATRRARIHHRGNKELLQLDVETGNLLLKEKPDREALCGATEPCVLHFQIILENPVQFFQTELQLTDINDHSPEFPDTEMLLKIQESTQPATVFLLKAAQDSDIGSNAVQNYTVSPNLHFHVVTLSRSDGRKYPELVLDRALDREEQPELTLILTALDGGAPPKSGTTTVRIEVVDINDNAPEFVQSLYSVEVPENSPLDALVVTVSARDLDAGIHGNVAYSLFQGGGGPQPFVIDEITGEIRLKGALDFEATSYYTMEIVATDSGGLSGKCTVAIQVLDVNDNAPKLTISSLTSSIPENAPEAVVAVFSVSDPDSGDNGRMVCSIQNELPFLLKPTFENYYTLAAEGPLDREIREEYNITIIVSDLGTPRLTTQHTITVQVVDIND
modifications: N- and O-linked glycans; O-mannose at positions 194 and 196 (α7 numbering) of EC2

What was measured:
[1] = target: Pcdhα7 EC1-5 (Mus musculus) (UniProt Q91Y13); conditions: cited from earlier work
AUC = target: the molecule itself; experiment: AUC

| Molecule | Kd [1] [µM] | stoichiometry N (AUC) | Kd (AUC) [µM] |
| --- | --- | --- | --- |
| Pcdhα7 EC1-5 (from UniProt Q91Y13) | 2.91 |  |  |
| B1 |  | 2 |  |
| B2 |  | 2 | 24 ± 0.43 |
| B3 |  | 2 | 0.037 ± 0.0082 |
| B4 |  | 2 | 16.3 ± 2.08 |
